The series concerns the molecule itself. The series can be described thus: SEC.

B1: YpTatB^22-220 (soluble cytoplasmic domain of Yersinia pseudotuberculosis TatB) (domain or fragment)
chain: PERLPVAVRTVSGWIRTLRSLAATVQNELAQELKLQELQDSLKKVEQAGLQNLTPELKASMDELKEAAEALKRSYHVDAGSEAPHTIHNPLVTEPEAIHDGVTPAEPATQVSALAQAPNILEAGTASVADSVVEAAPVTTVKSVVQGEVLVKSTPVQEVGLADVMDKPVTKQQIDTIDSHGTDLSSAGPSRIHQPGGDQ
As for B1, the “stoichiometry N” value is 3.

B2: TatB^22-171 (soluble membrane-extrinsic cytoplasmic domain of E. coli TatB) (domain or fragment)
chain: PQRLPVAVKTVAGWIRALRSLATTVQNELTQELKLQEFQDSLKKVEKASLTNLTPELKASMDELRQAAESMKRSYVANDPEKASDEAHTIHNPVVKDNEAAHEGVTPAAAQTQASSPEQKPETTPEPVVKPAADAEPKTAAPSPSSSDKP
On to B2, for which the “stoichiometry N” value was 4.

Values taken from doi:10.1101/2020.05.11.089458 (bioRxiv, 2020).
